Assay results published in patent publication US20160145352A1 (INSTITUT NATIONAL DE LA RECHERCHE AGRONOMIQUE, published 2016).

What was measured:
[1] = target: H2B histone in the monomeric state (HPLC-purified fraction) (human, UniProt P62807 2-126); assay: immunoblot on HPLC-purified histones, VHH-HA plus anti-HA, HRP/ECL
Method: (§1) After blocking in TBS-T (Tris buffered saline, 0.1% Tween® 20), 5% skimmed milk, the membrane is incubated for 1 h in a dilution of the VHH-HA polypeptide (5 μg/ml) combined with an anti-HA antibody (HA-11 mouse monoclonal 16B12 from Covance) diluted to 1 μg/ml in TBS-T, 5% skimmed milk. The membranes are also probed with the anti-H2AX (Epitomics clone EPR895) and anti-γH2AX (Millipore) monoclonal antibodies. After 3 washes in TBS-T, the blot is incubated with the anti-mouse secondary antibody coupled to horseradish peroxidase (HRP) (Cell Signaling), then washed 3 times for 10 min. Visualization is carried out with an ECL substrate (Enhanced Chemiluminescence West Dura Thermo scientific). The chemiluminescence photon emission is captured by a camera (G-Box Syngene).
(§2) To this effect, the proteins of the fractions thus obtained, in particular of the fractions containing H2A, H2B and H3, and also a mixture of the H2A and H2B fractions, are separated by electrophoresis in a denaturing polyacrylamide gel (NuPage® Bis Tris, Life Technologies), then transferred onto a nitrocellulose membrane. The visualization is carried out according to the protocol described above.

[2] = target: H3 histone (HPLC-purified fraction) (human, UniProt P68431 2-136); assay: as above
Method: as §1, §2

[3] = target: H4 histone (in total histones acid-extracted from HT1080 human cells) (human, UniProt P62805 2-103); assay: immunoblot on acid-extracted total histones of HT1080 cells, overlaid on Ponceau red staining

| binding result [1] | binding result [2] | binding result [3] | Binder |
| --- | --- | --- | --- |
| no binding (tested: 5 µg/ml) | no binding (tested: 5 µg/ml) | no binding (tested: 5 µg/ml) | C25-HA polypeptide (VHH C25 fused to the HA tag) (VHH, Secreted into E. coli culture medium from pHEN4-VHH; also called VHH-HA; not shown: HA tag from the pHEN4 vector) VHH: QVQLQASGGGLVQAGESLTLSCDASGRTFSIGAMGWFRQAPGKEREFLAAINWNGGYTSYADVASGRFTISRNAKNTVYLQMNSLQPEDTAVYYCAAKYGGSARSRTYDYWGQGTQVTVS |
| no binding (tested: 5 µg/ml) | no binding (tested: 5 µg/ml) | no binding (tested: 5 µg/ml) | C76-HA polypeptide (VHH C76 fused to the HA tag) (VHH, Secreted into E. coli culture medium from pHEN4-VHH; also called C75-HA (as printed in Experiment 2); VHH-HA; not shown: HA tag from the pHEN4 vector) VHH: QVQLQASGGGLVQAGGSLRLSCAVSGGTLSSYTMGWFRQAPGKEREFVSALSRVGGKSDYADSVKGRFTISRNAKNTVYLQMNSLKPEDTAVYYCAAGGYSRRWSAYNYWGQGTQVTVS |
| no binding (tested: 5 µg/ml) | no binding (tested: 5 µg/ml) | no binding (tested: 5 µg/ml) | S2-HA polypeptide (VHH S2 fused to the HA tag) (VHH, Secreted into E. coli culture medium from pHEN4-VHH; it calls it the VHH domain; also called VHH-HA; not shown: HA tag from the pHEN4 vector) VHH: QVQLQASGGGLVQAGDSLRLSCAAAGRSFSSYAMGWFRQAPGKEREFVAAISRSRGVTYADSVKGRFTISKDNVKNMAYLQMNSLKPEDTGVYYCAATSSGSTRQLSTGRSNYWGQGTQVTVS |
